Assay: yeast display, Sf9 membrane polyspecificity reagent, FACS + sequencing; frameworks hold sequencing errors
Procedure, shortened: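 Synthetic nanobody libraries on Saccharomyces cerevisiae BJ5465 were galactose-induced for 36–48 hours, stained 1 hour at 4 °C with 10% biotinylated, detergent-solubilized Sf9 membrane reagent and enriched on streptavidin microbeads. FACS then separated cells into low and high (top ~1%) gates by anti-HA (expression) and streptavidin (reagent binding) fluorescence. Genes were colony-PCR amplified, MiSeq 2 × 250 sequenced and CDR-length filtered. A clone's polyreactivity label is that of its gate of origin.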

Row | Sequence | polyreactivity (PSR sort gate)
1 | QVQLVESGGGLDQAGGSLPLSCAASGRTFRYYDRGSYRQAPGKERELVARISISGAGTYYADSVKGRFTISRDNAKNTVYFEMNSLKPEDTAVYYCAADLFWWQKTISGGDYWGQGTQVNVSS | low polyreactivity
2 | QVQLVESGGGLVQSGGILRLSCAASGGTFYANAMGWYRQAPGKERELVAAITSGGSTNYADSVKRRFTISRDNAKNTVSLQMNSLKPEDTAVYYCNASAQRRYWHSYFRRYDYWGQGTQVTVSS | low polyreactivity
3 | QVQLVESGGGLVQAGGSLRLSCAASGFIFVKYAMGWNRQAPGKERELVAAITNGCSTYYADSVKGRFTISRDNAKNTVYLQMNSLKPEDTAVYYCAAGHPEYDFWGQGTQVTVSS | low polyreactivity
4 | QVQLVESGGGLVQAGGSLRLSCAASGIIFSGYAMGWYRQAPGKERELVAVISSSGGGTYYADSVKGRFTISRDKAKNTVYLQMNSLIPEDTAVYYCAARGREAIHGYWGQGTQVTLSS | high polyreactivity
5 | QVQLVESGGGLFQAGGSLRLSCAPSGSNFSIYAMGWYRQAPGKERELVAAITWGGGSTYYADSVKGRFTISRDNAKNTVYLQMNSLKPEETAVYDCAADSLTWYGTYYYWGQGTQVTVSS | high polyreactivity
6 | QVQLVESGGGLVQAGGSLRLSCAASGSTFVNYVMGWYRQAPGKERELVAAISRRGTSTRYADSVKGRFTISRDNAKNTVYFQMNSLKPEDTAVYFCAATRYVGVTGYGYWGLGTQVTVSS | high polyreactivity
7 | QVQLVESGGGLVQAGGSLRLSCAASGRIFYYYAMGWYRQAPGKERELVAAISSIGGSTYADSVKGRFTISRDNAKNTVYLQMNSLKPEDTAVYYCAADGFKRLYTQVAHVRYDYWGQGTQVTVSS | low polyreactivity
8 | QVQLVESGGGLVQAGGSLRLSCAASGRTFYTNAMGWYRQAPGKERELVAAIDGGGTTYYADSVKGRFTISRDNAKNTVYLQMNSLKPEDTAVYYCNADVFGLKQTAFDYWGQGTQVTVSS | low polyreactivity
9 | QVQLVESGGGLVQAGGSLRLSCAASGLTFYGYVMGWYRHAPGKERELVASISRSGGRTYYADSVKGRFTISRDNAKNTVYLQMNSLKAEDTAVYYCGAGDQVGQEDDYWGQGTQGTVSS | low polyreactivity
10 | QVQLVESGGGLVQAGGTLRLSCAASGRTFSGYAMGWYRQAPGKERELVAAIDRGDGTNYADSVKGRFTISRDNAKNTVYLQMNSLKPEDTAVYYCAADYSYGSTSHTYTGFDYWGQGTQVTVSS | low polyreactivity
11 | QVQLVESGGGLVQAGGRLRLSCAASGRTFFRYVMGWYRQAPGKERELVAAISRSGGSTYYADSVKGRFTISRDNAKNTVYLQMNSLKPEATAVFYCNTVARSTVVPTEFDYWGQGTQVTVSS | high polyreactivity
12 | QVQLVESGGGLVQAGGSLRLSCAASGRTFYRYAMGWYRQAPGKERELVATISRSGGSTYYADSVKGRFTISRDNAKYTVYLQMKSLNPEDTAVYYCNAEGYPWGFYTYDYWGQGTQVTVSS | low polyreactivity
13 | QVQLVESGGGLVQAGGSLRLSCAASGSTLSYYAMGWYRQAPGKERELVAAISFSGGITYYADSVKGRFTISRDNAKNTVYLQMNSLKPEDTAVYYIKAEYKVYRAYVIWYDYWGQGTQVTVSS | high polyreactivity
14 | QVQLVESGGGLVQAGGSLRLSCAASGSIFGSYAMGWYRQAPGKERELVAVITSSGNTKYADSVKGRFTISRDNAKNTVYLQMNSLKPEDTAVYYCAARFITWCSQYSFRSMDYWGQGTQVTVSS | high polyreactivity
15 | QVQLVESGGGLVQAGGSLRLSCAASGSISTYNDSGWYRQAPGKEREFVASITLSTGRTDYADSVKGRFTISRDNAKNTVYLQMNSLKPEETAVYVCSVRDYARKYLTSFDYWGQGTQVTVSS | high polyreactivity
16 | QVQLVESGGGLVQAGGSLSLSCAASGSTFSRNTMGRYRQAPRKERELVAGISSSGGSTYYADSVKGRFTISRDNAKNTVYLQMNSLKQEDTAVYYCSARFYVSFVGYNYWGQGTQVTVSS | high polyreactivity

Row | Sequence | polyreactivity (PSR sort gate)
17 | QVQLVQSVVGLVQAGRRLRLSSAASGRIFFYNAMGWYRHAPGKERELVAGISRSGTSTYYADSVKGRFTISRDNAKNTVYLHMNSLKPEDTAVYYCAAGTFYYWLSYDYWGQGTQVTVSS | low polyreactivity
18 | QDQLVESGGGLVQAGGSLRLSCAASGRIFHFNAMGWYRQAPGKERELVAAITSSGGSTDYADSVKGRFTISRDTAKNTVYLQMNRLKPEDTADYYCAKRVDAYGWWGRRSGVLSDYWGQGTQVTVSS | low polyreactivity
19 | QVQLQECGGGLVQAGGSLRLSCAASVNIFDADIMGSYRQAPGKERELVASVTDGGSTNYADSVKGRFTISRDNAKNTVYLQMNSLKPEDTAVYYCAGIVYPDILTFFDYDYDYFYWGQGTQVTVGS | low polyreactivity
20 | QVQLVESGGGLVQAGGSLRLSCAASGIIFGRNTMGWYRPAPGKERELVAGISSNGGSTYYADSVKGRFTISRDNAKNTVYLQMNRLKPEDTAVYYCAAYYNIPDRRRVGYDYWGQGTQVTVSS | high polyreactivity
21 | QVQLVESGGGLVQAGGSLRLSCAASGFIFYRYAMGWYRQAPGKERELVAAISSSGGSTYYADSVKGRFTISRDNAKNTVYLQMNSLKPEDTAVYYCAAEPSGKRSKFYYWGQGTQVTVSS | high polyreactivity
22 | QVQLVESGGGLVQAGGSLRLSCAASGGTLDYYVMAWYRQAPGKERELVAAISTNGGSTNYADSVKGRFTISRDNAKNTVYLQMNSLKPEDTAVYYCAATSDVYVFLEFDYWGQGTQVTVSS | low polyreactivity
23 | QVQLVESGGGLVQAGGSLLLICAASGFIFVPYAMGWYRQAPGKEREFVATITWRGDSTYYADSVKGRFTISRDNAKNTVYLQMNSLKPEDTAVYYCAVYPIRLWAYDYWGQGTQVTVSS | low polyreactivity
24 | QVQLVESGGGLGQAGGSLRLSCAASGRIFFHYAMGWYRPAPGKERELVATITTVGSTYYADSVKGRFTISRDNAKNTVYLQMNSLKPEDTAVYYCAARYISLSGDEYDYWGQGTQVTVSS | low polyreactivity
25 | QVQLVESGGGLVQAGGSLRLSCAASGSIFIYYAIGWYRKAPGKERELVAAIDRSGGNTYYADSVKGRFTISRDNAKNTVYLQMNSLKPEDTAVYYCAALVHRRVQYDYWGQGTQVTVSS | high polyreactivity
26 | QVQLVESVGGLVQAGGSLRLSCAASGRTFMYNAMGWYRQAPGKERELVAAISWSGGSTYYADSVKGRFTISRDNAKNTVYFLMNSLKPEDTAVYYCAATGRRSGFYFWGQGTQVTVSS | high polyreactivity
27 | QVQLVESVGGLVQAGGSLRLSCAASGRIFRYYAMGWSSQAPGKESELVAAITSDGRTYYADSVKGRFTISRDNAKNTVYLQMNSQKPEDTAVYYCAADHHSYRYGGYYYWGQGTQVTVAS | low polyreactivity
28 | QVQLVESGGGLVQAGGSLRLSCAASGSTFTSNAMGWYRQAPGKERELVAAISFSDASTYYADSVKGRFTISRDNAKKTVYLQMNRLKPEDTAVYYCNADYPTTAYDYCGQGTQVTVSS | low polyreactivity
29 | QFQLVESGGGLVQAGGSLRLSCAASGRTFRSNTMGWYRQAPGKEREFVAVITYSAGSTYYADSVKGRFTISRDNAKNTVYLQMNSLKPEDTAVYYCAARVSWWPYDWYGYWGQGTQVTVSS | high polyreactivity
30 | QVQLVESGGGLVQAGGSLRLSCAASGSILRSNAMGWYRQAPGKERELVAVISNDDSTYYADSVKGRFTISRDNATNTVYLQMNSLKPEDTAVYYCNAVYYYFFRWHPIYDSWGQGTQVTVSS | low polyreactivity
31 | QVQLVESGGGLVQAGGSLRLSCPASGRTFGDYAMGWYRQAPGKERELVAAISSSGGRTYYADSVKGRFTISRDNAKNTVYLQMNSLKPEDTAVYYCAAQSKYYQYYSWGQGTQVTVSS | high polyreactivity

Source: the nanobody polyreactivity screen of Harvey et al. (2022)
